The values that follow come from paper PMC9287160, “Structural insights into the function-modulating effects of nanobody binding to the integrin receptor αMβ2” (The Journal of Biological Chemistry, 2022).

This experiment has as its target T1, recombinant human αMβ2 αI domain (human).
T1 construct: αI domain (von Willebrand factor type A domain) of integrin αM (CD11b), human; numbers count on: the mature protein; PDB 4M76 (cited) holds an αI–C3d complex of the same laboratory; also called hαI; human αI domain
T1 chain: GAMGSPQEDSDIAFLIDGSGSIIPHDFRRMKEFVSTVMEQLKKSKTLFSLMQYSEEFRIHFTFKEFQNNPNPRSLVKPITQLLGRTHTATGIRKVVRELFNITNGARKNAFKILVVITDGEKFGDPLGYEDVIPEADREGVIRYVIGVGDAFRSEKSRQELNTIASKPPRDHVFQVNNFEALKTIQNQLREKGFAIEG
The experiment is described as follows: BLI; His-tagged hCD11bNb1 on anti-penta-HIS sensors; αMβ2 HP 6.25-50 nM or αI domain 0.8-25 nM in solution; 30 °C; 20 mM Hepes pH 7.5, 150 mM NaCl, 5 mM MgCl2, 1 mM CaCl2; 1:1 model; triplicates; apparent. To be noted: both partners purified. A general note: BLI is a label-free optical method that tracks binding on a fibre tip over time.

B1: nanobody hCD11bNb1 (His-tagged) (VHH)
VHH: QVQLVETGGGLVQAGGSLRLSCAASGNINSFNAMGWFRQAPGKQRELVAAITFGGRTNYADSVKGRFTISRDNTKGSVYLQMNSLKPEDTAVYYCAASENNLLTGVWHYWGRGTQVTVSS
notes: nanobody selected by phage display from a llama immunised with the αMβ2 HP; they are in PDB 7NP9 (nanobody alone) and PDB 7P2D (complex); Captured through its His tag on anti-penta-HIS BLI sensors. pET-22b(+) usually adds a C-terminal His6 (surmise); also called parental hCD11bNb1; WT hCD11bNb1
Regarding B1, the Kd lay within 1 to 6 nM.
